B1: bovine Ric8A1–492 [bovine] / Gαt333–350 [modified: biotin on the N-terminus (in the BLI assays); biotin on the N-terminus (in the BLI assays)] [not stated] (parent)
chain 1: MEPRAVADALETGEEDVVMEALRAYNRENSQSFTFDDAQQEDRKRLAKLLVSVLEQGLPPSRRVIWLQSIRILSRDRSCLDSFTSRRSLQALACYAGISASQGSVPEPLNMDVVLESLKCLCNLVLSSPVAQALAAEAGLVVRLAERVGLCRQSSFPHDVQFFDLRLLFLLTALRTDVRQQLFQELQGVRLLTRALELTLGMTEGERHPELLPPQETERAMEILKVLFNITFDSIKREVDEEDAALYRHLGTLLRHCVMLAAAGDRTEELHGHAVNLLGNLPVKCLDVLLTLEPHEGSLEFLGVNMDVIRVLLSFMEKRLHQTHRLKESVAPVLSVLTECARMHRPARKFLKAQVLPPLRDVRTRPEVGELLRNKLVRLMTHLDTDVKRVAAEFLFVLCSESVPRFIKYTGYGNAAGLLAARGLMAGGRPEGQYSEDEDTDTDEYKEAKASINPVTGRVEEKPPNPMEGMTEEQKEHEAMKLVNMFDKLSRH
chain 2: DAVTDIIIKENLKDCGLF

The variants in assay [1] derive from B1. In words: BLI (steady-state). The note with it: with Gαt333–350 [modified: biotin on the N-terminus (in the BLI assays).
The variants in assay [2] derive from B1. In words: BLI (steady-state binding curve). The note with it: with Gαt333–350 [modified: biotin on the N-terminus (in the BLI assays), biotinylated Gαt333–350 coupled to a streptavidin biosensor.

For the variant chain 1 MEPRAVADALETGEEDVVMEALRAYNRENSQSFTFDDAQQEDRKRLAKLLVSVLEQGLPPSRRVIWLQSIRILSRDRSCLDSFTSRRSLQALACYAGISASQGSVPEPLNMDVVLESLKCLCNLVLSSPVAQALAAEAGLVVRLAERVGLCRQSSFPHDVQFFDLRLLRLLTALRTDVRQQLFQELQGVRLLTRALELTLGMTEGERHPELLPPQETERAMEILKVLFNITFDSIKREVDEEDAALYRHLGTLLRHCVMLAAAGDRTEELHGHAVNLLGNLPVKCLDVLLTLEPHEGSLEFLGVNMDVIRVLLSFMEKRLHQTHRLKESVAPVLSVLTECARMHRPARKFLKAQVLPPLRDVRTRPEVGELLRNKLVRLMTHLDTDVKRVAAEFLFVLCSESVPRFIKYTGYGNAAGLLAARGLMAGGRPEGQYSEDEDTDTDEYKEAKASINPVTGRVEEKPPNPMEGMTEEQKEHEAMKLVNMFDKLSRH [chain 1 F169R], the Kd amounted to 1800 nM in assay [1] and 1900 nM in assay [2].

As to chain 1 MEPRAVADALETGEEDVVMEALRAYNRENSQSFTFDDAQQEDRKRLAKLLVSVLEQGLPPSRRVIWLQSIRILSRDRSCLDSFTSRRSLQALACYAGISASQGSVPEPLNMDVVLESLKCLCNLVLSSPVAQALAAEAGLVVRLAERVGLCRQSSFPHDVQFFDLRLLFLLTWLRTDVRQQLFQELQGVRLLTRALELTLGMTEGERHPELLPPQETERAMEILKVLFNITFDSIKREVDEEDAALYRHLGTLLRHCVMLAAAGDRTEELHGHAVNLLGNLPVKCLDVLLTLEPHEGSLEFLGVNMDVIRVLLSFMEKRLHQTHRLKESVAPVLSVLTECARMHRPARKFLKAQVLPPLRDVRTRPEVGELLRNKLVRLMTHLDTDVKRVAAEFLFVLCSESVPRFIKYTGYGNAAGLLAARGLMAGGRPEGQYSEDEDTDTDEYKEAKASINPVTGRVEEKPPNPMEGMTEEQKEHEAMKLVNMFDKLSRH [chain 1 A173W], the Kd in assay [1] and in assay [2] was over 10000 nM in each case.

The Kd is the equilibrium constant for the complex coming apart.

The record behind these values is article PMC6625990, “Structural underpinnings of Ric8A function as a G-protein α-subunit chaperone and guanine-nucleotide exchange factor” (Nature Communications, 2019).
